According to patent publication US6500431B1, “Inhibitors of angiogenesis and tumor growth” (University of Southern California, priority 1998, dated 2002):
“Also recorded” adds a separate entry of the source.

Assays:
KS-SLK or KS Y-1 cells = test: KS-SLK or KS Y-1 tumors in nude mice; type: in vivo; conditions: daily subcutaneous 1, 10 and 20 mg/kg after one week of tumor development
Experimental: In order to determine the anti-angiogenic activity of the recombinant Saposin B, tumor cells were implanted in immuno-deficient mice and treated with either Saposin B or buffer alone.
Nude mice were injected with 2×10^6 KS-SLK or KS Y-1 cells subcutaneously in a total volume of 100 μL. After one week of tumor development, the mice were injected subcutaneously daily with either PBS or Saposin B at concentrations of 1, 10 and 20 mg/kg for a total protein concentration of […]. The tumor size was measured three times a week. The results represent the median of 4 mice in each group.

KS Y-1 tumor = test: Established KS tumors in mice; type: in vivo
Experimental: FIG. 5: Effect of two daily doses of Saposin B on growth of an established KS Y-1 tumor. The arrow marks initiation of daily subcutaneous dosing.
In further experiments, KS tumors were allowed to grow for five days before treatment with Saposin B (1 and 5 mg/kg daily at a distal site from the timor). In control mice, tumors grew to a weight of 555±mg. […] Tumors excised at the conclusion of the experiments were also examined for apoptosis, blood vesel density, andmitotic index. […] Thus, contrary to the results in vitro, Saposin B has an inhibitory effect against non-KS tumors.

[1] = test system: Human bone marrow cells and peripheral blood mononuclear cells; test: Stem cell clonogenic assays in methylcellulose; type: cell-based
Experimental: Human bone marrow cells and peripheral blood mononuclear cells were harvested from a subject after the administration of high doses of cyclophosphamide and G-CSF. Stem cell clonogenic assays in methylcellulose were performed with IL-3, erythropoietin, and VEGF (10 ng/mL, and 100 ng/mL). VEGF was used to determine if there are progenitor cells with self replication capacity but without adherence to extracellular matrix such as fibronectin. It was also desirable to determine if Saposin B was toxic to endothelial cell specific progenitors for hematopoietic (myeloid or erythroid) lineage cells.
These colonies contained mixture of cells indicating more than one cell lineage generated in response to VEGF. The colonies also contained spindle shaped cells which mark the presence of VEGF receptors.

KS cell lines = test: Activity of recombinant Prosaposin chains on growth of KS cell lines; type: cell-based; conditions: FIG. 1
From the text: In order to determine whether recombinant Saposin B has anti-angiogenic activity, the coding region of each of the Prosaposin chains was amplified from fibroblast cell lines and cloned into both bacterial (pGEX-KG) and eukaryotic (pcDNA 3.1His A) expression vectors.
The PCR products were digested with the respective restriction enzymes and the restriction products were inserted into the pGEX-KG vector for bacterial expression. pGEX-KG vector comprises a glutathione S transferase (GST)-tag at the […] of the insertion site so that a GST-fusion protein is expressed. The GST-tag is used to aid in purification of the recombinant protein. After elution from a glutathione-Sepharose 4B column, the GST-tagged proteins were incubated with thrombin (4 μg/ml) for 4 hr at room temperature (22-25° C.) in 50 mM Tris, pH 8.3, 3 mM CaCl2, 150 mM NaCl to cleave GST from the fusion protein. Free GST was removed from the preparation by passing the digested fusion protein through the glutathione-Sepharose 4B column.
By SDS-PAGE, the bacterial product was smaller than the eukaryotic protein. Because prokaryotically expressed proteins are not glycosylated, the difference in molecular weights probably represents the presence of carbohydrate in the eukaryotic protein. Recombinant proteins were then tested in KS, endothelial and control cell lines. Activity was found only in KS cell lines and endothelial cells.

[2] = test system: CD34+/Flk-1+ cells from cord blood; test: Growth of CD34+/Flk-1+ progenitors on fibronectin coated dishes; type: cell-based, human; conditions: 50 ng/mL Saposin B
From the text: A bone marrow derived human CD34+/Flk-1+ progenitor cell can be mobilized into the blood stream in response to tumor induced signals such as VEGF and cytokine production. These cells can target to sites of angiogenesis where they mature into activated endothelial cells and thus contribute to the generation of new blood vessels at the tumor site. By blocking the production of these cells or by targeting these cells (i.e., the CD34+/Flk-1+ progenitors and the activated endothelial cell they can become), the angiogenesis/vasculogenesis required for tumor growth can be reduced or halted. […] The adherent cells take on a spindle-shaped morphology characteristic of the activated vascular endothelial cells typical of the angiogenic process. These cells express endothelial-specific markers including factor VIII, ulex europaeus agglutinin-1 (UEA-1), endothelial constitutive nitric oxide synthase (ecNOS), and E selectin. Further, when these cells (peripheral blood Flk+ progenitors) are infused into mice, they incorporate into newly formed blood vessels at site of injury. These observation identify CD34+/Flk-1+ bone marrow derived progenitors as a putative precursor to vascular endothelial cells. Preventing these cells from colonizing at distal sites of angiogenesis in tumors has enormous implication for the treatment of tumors. […]

endothelial cells = test: Endothelial cell migration assay, fibronectin-coated transwell; type: cell-based; conditions: chemotaxis induced by VEGF or bFGF
Experimental: The assays were done in double chamber wells separated by […] membrane. Chemotaxis was induced by bFGF (25 ng/mL) in the lower chamber. Endothelial cells or KS cells (5×10^4/mL) were placed in the upper chamber in the presence and absence of test polypeptides. Taxol at 10 ng/mL was used as a known inhibitor of migration. Cell migration across the membrane was quantitated after an overnight incubation.
Angiogenesis is mediated by complex biochemical processes including degradation of the basement membrane under existing blood vessel endothelial cells, followed by proliferation and migration of endothelial cells, followed by formation of capillary loops, and recruitment of vascular smooth muscle cells to encase the newly formed vessels and provide stability. […]
Briefly, wells were coated with fibronectin (25 μg/mL) overnight, and endothelial cells or KS cells were plated in the upper chamber with 100 μL of DMEM/0.4% FCS. […] The plates were incubated for 5 hr at 37° C. and the cells crossing the fibronectin-coated membrane were counted after wiping the cells off the membrane in the upper chamber with a cotton swab.
The cells that traversed the membrane were fixed with Diff-Quik stain according to the manufacturer's instruction (Dade Diagnostics Inc., Aguada, PR). The cells were counted under a microscope at 320× in four randomly selected fields. […]

[3] = test system: CD34+ cord blood derived cells; test: Viability of CD34+ cord blood derived cells; type: cell-based, human
From the text: However in the presence of Saposin B, CD34^+/Flk-1^+ progenitor […] was inhibited.
Saposin B was found not to be toxic to most CD34^+ cord blood derived cells, since the difference in viability of Saposin B treated CD34^+ cells was only around 20% when compared to control cells. Thus Saposin B not only targets fully differentiated and activated endothelial cells, but also a circulating progenitor, previously shown to target angiogenic sites.

B1: Saposin B: polypeptide fragment of Prosaposin (positions 190 to 269), SEQ ID NO:2; recombinantly expressed (protein)
chain: GDVCQDCIQMVTDIQTAVRTNSTFVQALVEHVKEECDRLGPGMADICKNYISQYSEIAIQMMMHMQPKEICALVGFCDEVK
tumor growth (KS-SLK or KS Y-1 cells): markedly retarded | apoptosis in excised tumors (KS Y-1 tumor; 1 and 5 mg/kg daily): increase in apoptosis | blood vessel density in excised tumors (KS Y-1 tumor; 1 and 5 mg/kg daily): decrease in blood vessel density | weights of excised tumors relative to controls (KS Y-1 tumor; treatment from day five, 1 and 5 mg/kg daily at a distal site): approximately 23% | cytotoxic effect on colonies developed with IL-3 or erythropoietin [1]: no cytotoxic effect | effect on colonies generated with VEGF ([1]; VEGF 10 ng/mL and 100 ng/mL): loss of spindle shaped cells | growth inhibition of KS cells (KS cell lines): dose dependent growth inhibition | CD34+/Flk-1+ progenitor growth [2]: inhibited | inhibition of endothelial cell migration (endothelial cells): compete inhibition of cell migration; also recorded: inhibited endothelial cell migration | difference in viability of treated CD34+ cells compared to control cells [3]: around 20%
